# From US20170158753A1
# Positions count from the first letter of the chain named. Several values for one entry are separate records, joined by “and”; a condition that tells them apart may be missing. Equal entries are not always repeated. Where two headings read alike, the source gives them in different places.
# B1: m21B2 (antibody, V domains shown)
# VH: EVQLQESGAELVRPGASVTLSCKTSGYTFTDYEMHWVKQTPVHGLEWIGAIDPETGGTAYNQKFKGKATLTADKSSSTAYMELSRLTSEDSAVYYCTGNYATDYWGQGTSVTVSS
# VL: DIVMSQSPSSLAVSAGEKVTMSCKSSQSLFNSRSRKNYLAWYQLKPGQSPKLLIYWASTRESGVPDRFTGSGSGTDFTLTISSVQAEDLAVYYCKQSNYLWTFGGGTKLEIKR
# B2: m8C4 (antibody, V domains shown)
# VH: EVQLQESGPELKKPGETVKISCKASGYTFTTYGMSWVKQAPGKGLKWMGRINTYSGVPTYADEFKGRFAFSLENSASTAYLQINNLKNEDTATYFCARGDGGHWFANWGQGTLVTVSA
# VL: DIQMTQSPSSLSASLGGKVTITCKASQDINKNIAWYQHKPGKGPRLLIWYKSALQPGIPSRFSGSGSGRDYSFSISNLEPEDIATYSCLQYDNLPPTFGGGTKLEIKR
# B3: m2D8 (antibody, V domains shown)
# VH: EVQLQESGGELVRPGTSVKISCKASGYTFTNFWLGWIKERPGHGLEWIGDIYPGGHYTNYNENFKGKATLTADTSSNTAYMQVSSLTSEDSAVYFCFTQYYDMDYWGQGTSVTVSS
# VL: not shown
# B4: m16G8 (antibody, V domains shown)
# VH: EVQLQESGPGLVKPGASVKISCKASGYSFTGYYMNWVKQSPEKSLEWIGEINPSTGGTTYNQKFKAKATLTVDKSSSTAYMQLKSLTSEDSAVYYCVRYSHYYGSGSWYFDVWGTGTTVTVSS
# VL: DIQMTQSPASLSASVGETVTITCRASENIYSNLAWYQQKQGKSPQLLVNAATNLADGVPSRFSGSGSGTQFSLKINSLQPEDFGSYYCQHFYVTPYMFGSGTKLEIKR
# B5: m2E4 (antibody, V domains shown)
# VH: B4 VH with G10E
# VL: B4 VL with M97T
# B6: m17C6 (antibody, V domains shown)
# VH: EVQLQESGPGLVQPSQSLSITCTVSGFSLTSYGVHWVRQSPGKGLEWLGVIWSGGSTDYNAAFISRLSISKDNSKSQVFFKMNSLQADDTAIYYCARNWFDYDNYYSMDYWGQGTSVTVSS
# VL: DIQMTQTTSSLSASLGDRVTISCRASQDISNYLNWYQQKPDGTVKLLIYYTSRLHSGVPSRFSGSGSGTDFSLTISNQEPEDIATYYCQQYSNLPWTFGGGTKLEIKR
# Experiments:
# [1] = target: SUDV GP[change] (Sudan virus) (UniProt Q66814)
# [2] = target: MARV GP[change] (Marburg virus) (UniProt P35253)
# [3] = target: EBOV GP[change] (Ebola virus), Q05320; details: remark: other sources report otherwise
# [4] = target: MARV GP[change] (Marburg virus), P35253; details: remark: other sources report otherwise
# [5] = target: EBOV GP[change] (Ebola virus) (UniProt Q05320)
# [6] = target: BDBV GP[change] (Bundibugyo virus (BDBV)); test: ELISA, GPΔTM coated
# [7] = target: EBOV GP[change] (Ebola virus) (UniProt Q05320); remark: listed apart in the source
# [8] = target: EBOV GP[change] (Ebola virus), Q05320; details: remark: other sources report otherwise; remark: listed apart in the source
# [9] = target: cleaved EBOV GP (GPcl) (Ebola virus (EBOV)), Q05320; test: ELISA on cathepsin-cleaved EBOV GP at pH 5.5; details: remark: other sources report otherwise
# [10] = target: cleaved EBOV GP (GPcl) (Ebola virus (EBOV)), Q05320; test: ELISA on cathepsin-cleaved EBOV GP at pH 7; details: remark: other sources report otherwise
# [11] = target: cleaved EBOV GP (GPcl) (Ebola virus (EBOV)), Q05320; test: ELISA, cleaved EBOV GP coated; details: remark: other sources report otherwise
# [12] = target: cleaved EBOV GP (GPcl) (Ebola virus (EBOV)), Q05320; test: ELISA on thermolysin cleaved EBOV GP (GPcl), OD650 against nM mAb; details: remark: other sources report otherwise
# [13] = target: RESTV GP[change] (Reston virus) (UniProt Q66799)
# [14] = target: EBOV GP[change] (Ebola virus), Q05320; details: remark: other sources report otherwise; remark: listed apart in the source
Binder,EC50 [1],EC50 [3] [µg/mL],EC50 [4] [µg/mL],EC50 [5] [µg/mL],EC50 [6] [µg/mL],EC50 [8] [nM],EC50 [12] [nM],other results
B1,> 10 µg/mL,> 10,0.0307,,,,,EC50 [2]: 0.0688 µg/mL
B2,0.15 µg/mL and 0.06 µg/mL,0.21,,0.26,> 10,2.6,,EC50 [7]: 6.7 nM
B3,,26.2,0.0573,,,,,EC50 (read off the curve) [9]: 1 µg/mL; EC50 (read off the curve) [10]: 0.7 µg/mL; EC50 [11]: 0.72 µg/mL
B4,,1.23,,,,3.3,> 100,
B5,,,,> 10,0.69,,,EC50 [13]: > 10 µg/mL
B6,,0.03,,,,1,0.6,Kd [14]: 11 nM
